# Measured values published in the supplement of paper PMC10567573.
# B1: SMTNL2 (parent)
# chain: AFTMAENLANCERLIEVEDMMVMG
# Variants of: B1
# Experiment: protein stability index of a GFP-peptide fusion (GPS, HEK-293T) (PSI 1-6); higher = more stable
# Conditions: c terminus: a fixed tail appended
# 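Further: lentivirally expressed fusions sorted by FACS into six bins by GFP to DsRed ratio, PSI derived from sequencing read proportions per bin multiplied by bin number.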
row,Variant,protein stability index
1,AFTMAENLANCERLIEVGDMMVMG,2.52
2,AFTMAENLANCERLIEVHDMMVMG,2.85
3,AFTMAENLANCERLIEVIDMMVMG,1.58
4,AFTMAENLANCERLIEVKDMMVMG,2.03
5,AFTMAENLANCERLIEVLDMMVMG,2.22
6,AFTMAENLANCERLIEVMDMMVMG,1.97
7,AFTMAENLANCERLIEVNDMMVMG,3.43
8,AFTMAENLANCERLIEVPDMMVMG,3.06
9,AFTMAENLANCERLIEVQDMMVMG,2.18
10,AFTMAENLANCERLIEVRDMMVMG,2.67
11,AFTMAENLANCERLIEVSDMMVMG,2.01
12,AFTMAENLANCERLIEVWDMMVMG,1.02
13,AFTMAENLANCERLIEVYDMMVMG,3.52
14,AFTMAENLANCERLIEVEAMMVMG,2.36
15,AFTMAENLANCERLIEVEEMMVMG,1.48
16,AFTMAENLANCERLIEVEFMMVMG,2.37
17,AFTMAENLANCERLIEVEGMMVMG,2.52
18,AFTMAENLANCERLIEVEHMMVMG,1.28
19,AFTMAENLANCERLIEVEKMMVMG,3.26
20,AFTMAENLANCERLIEVENMMVMG,2.63
21,AFTMAENLANCERLIEVEPMMVMG,1.71
22,AFTMAENLANCERLIEVEQMMVMG,2.06
23,AFTMAENLANCERLIEVERMMVMG,1.39
24,AFTMAENLANCERLIEVESMMVMG,1.62

row,Variant,protein stability index
1,AFTMAENLANCERLIEVETMMVMG,1.94
2,AFTMAENLANCERLIEVEWMMVMG,4.57
3,AFTMAENLANCERLIEVEYMMVMG,2.48
4,AFTMAENLANCERLIEVEDAMVMG,2.42
5,AFTMAENLANCERLIEVEDCMVMG,2.74
6,AFTMAENLANCERLIEVEDDMVMG,4.75
7,AFTMAENLANCERLIEVEDEMVMG,4.02
8,AFTMAENLANCERLIEVEDGMVMG,2.47
9,AFTMAENLANCERLIEVEDHMVMG,2.98
10,AFTMAENLANCERLIEVEDIMVMG,2.03
11,AFTMAENLANCERLIEVEDKMVMG,2.91
12,AFTMAENLANCERLIEVEDLMVMG,1.9
13,AFTMAENLANCERLIEVEDNMVMG,3.03
14,AFTMAENLANCERLIEVEDPMVMG,3.77
15,AFTMAENLANCERLIEVEDQMVMG,2.72
16,AFTMAENLANCERLIEVEDRMVMG,2.16
17,AFTMAENLANCERLIEVEDSMVMG,2.27
18,AFTMAENLANCERLIEVEDTMVMG,3.4
19,AFTMAENLANCERLIEVEDVMVMG,2.68
20,AFTMAENLANCERLIEVEDWMVMG,2.51
21,AFTMAENLANCERLIEVEDYMVMG,1.72
22,AFTMAENLANCERLIEVEDMAVMG,2.37
23,AFTMAENLANCERLIEVEDMCVMG,2.14
24,AFTMAENLANCERLIEVEDMDVMG,3.83

row,Variant,protein stability index
1,AFTMAENLANCERLIEVEDMEVMG,4.11
2,AFTMAENLANCERLIEVEDMFVMG,2.56
3,AFTMAENLANCERLIEVEDMGVMG,2.12
4,AFTMAENLANCERLIEVEDMHVMG,3.02
5,AFTMAENLANCERLIEVEDMIVMG,1.98
6,AFTMAENLANCERLIEVEDMKVMG,2.95
7,AFTMAENLANCERLIEVEDMLVMG,2.39
8,AFTMAENLANCERLIEVEDMNVMG,3.13
9,AFTMAENLANCERLIEVEDMPVMG,3.27
10,AFTMAENLANCERLIEVEDMQVMG,3
11,AFTMAENLANCERLIEVEDMRVMG,2.23
12,AFTMAENLANCERLIEVEDMSVMG,2.65
13,AFTMAENLANCERLIEVEDMTVMG,2.68
14,AFTMAENLANCERLIEVEDMVVMG,2.18
15,AFTMAENLANCERLIEVEDMWVMG,1.9
16,AFTMAENLANCERLIEVEDMYVMG,2.22
17,AFTMAENLANCERLIEVEDMMAMG,2.05
18,AFTMAENLANCERLIEVEDMMCMG,2.19
19,AFTMAENLANCERLIEVEDMMDMG,2.55
20,AFTMAENLANCERLIEVEDMMEMG,3.18
21,AFTMAENLANCERLIEVEDMMGMG,2.54
22,AFTMAENLANCERLIEVEDMMHMG,1.85
23,AFTMAENLANCERLIEVEDMMIMG,1.78
24,AFTMAENLANCERLIEVEDMMKMG,2.87

row,Variant,protein stability index
1,AFTMAENLANCERLIEVEDMMLMG,2.18
2,AFTMAENLANCERLIEVEDMMMMG,2.19
3,AFTMAENLANCERLIEVEDMMNMG,2.44
4,AFTMAENLANCERLIEVEDMMPMG,2.65
5,AFTMAENLANCERLIEVEDMMQMG,2.82
6,AFTMAENLANCERLIEVEDMMRMG,2.46
7,AFTMAENLANCERLIEVEDMMSMG,1.99
8,AFTMAENLANCERLIEVEDMMTMG,2.25
9,AFTMAENLANCERLIEVEDMMWMG,1.77
10,AFTMAENLANCERLIEVEDMMYMG,2.07
11,AFTMAENLANCERLIEVEDMMVAG,2.61
12,AFTMAENLANCERLIEVEDMMVCG,2.09
13,AFTMAENLANCERLIEVEDMMVDG,3.57
14,AFTMAENLANCERLIEVEDMMVEG,3.69
15,AFTMAENLANCERLIEVEDMMVFG,1.54
16,AFTMAENLANCERLIEVEDMMVGG,1.7
17,AFTMAENLANCERLIEVEDMMVHG,2.24
18,AFTMAENLANCERLIEVEDMMVIG,1.47
19,AFTMAENLANCERLIEVEDMMVKG,2.8
20,AFTMAENLANCERLIEVEDMMVLG,1.89
21,AFTMAENLANCERLIEVEDMMVNG,2.97
22,AFTMAENLANCERLIEVEDMMVPG,2
